According to article PMC1361355 (PLoS Pathogens, 2006):

B1: human ephrinB3 stably expressed on CHO-pgsA745 cells (CHO-B3) (natural protein, UniProt Q15768 28-340, looked up)
chain: LSLEPVYWNSANKRFQAEGGYVLYPQIGDRLDLLCPRARPPGPHSSPNYEFYKLYLVGGAQGRRCEAPPAPNLLLTCDRPDLDLRFTIKFQEYSPNLWGHEFRSHHDYYIIATSDGTREGLESLQGGVCLTRGMKVLLRVGQSPRGGAVPRKPVSEMPMERDRGAAHSLEPGKENLPGDPTSNATSRGAEGPLPPPSMPAVAGAAGGLALLLLGVAGAGGAMCWRRRRAKPSESRHPGPGSFGRGGSLGLGGGGGMGPREAEPGELGIALRGGGAADPPFCPHYEKVSGDYGHPVYIVQDGPPQSPPNIYYKV
notes: also called cell surface ephrinB3
B2: ephrinB2-Fc (soluble Fc-fusion ephrin protein, purchased) (Fc fusion)
chain: RSIVLEPIYWNSSNSKFLPGQGLVLYPQIGDKLDIICPKVDSKTVGQYEYYKVYMVDKDQADRCTIKKENTPLLNCARPDQDVKFTIKFQEFSPNLWGLEFQKNKDYYIISTSNGSLEGLDNQEGGVCQTRAMKILMKVGQDASSAGSARNHGPTRRPELEAGTNGRSSTTSPFVKPNPGSSTDGNSAGHSGNNLLGSEVA
B3: ephrinB2-Fc (soluble Fc-fusion ephrin protein, purchased) (Fc fusion)
chain: B2 chain
modifications: Ectodomain only. The human IgG1 Fc carrier, which makes the fusion a disulfide-linked dimer, is left out. Species is inferred: the R&D Systems ephrin-B2-Fc of that period was recalled as the mouse …
B4: ephrinB3-Fc (soluble Fc-fusion ephrin protein, purchased) (Fc fusion)
chain: LSLEPVYWNSANKRFQAEGGYVLYPQIGDRLDLLCPRARPPGPHSSPNYEFYKLYLVGGAQGRRCEAPPAPNLLLTCDRPDLDLRFTIKFQEYSPNLWGHEFRSHHDYYIIATSDGTREGLESLQGGVCLTRGMKVLLRVGQSPRGGAVPRKPVSEMPMERDRGAAHSLEPGKENLPGDPTSNATSRGAEGPLPPPSMP
notes: source: bought: R & D Systems

Columns and labels:
[1] = target: T1, NiV-G-Fc, a fusion construct between the ectodomain of NiV-G and the Fc region of human IgG1 (Nipah virus, UniProt Q9IH62 71-602); assay: flow cytometry on cells; conditions: one partner purified
T1 sequence: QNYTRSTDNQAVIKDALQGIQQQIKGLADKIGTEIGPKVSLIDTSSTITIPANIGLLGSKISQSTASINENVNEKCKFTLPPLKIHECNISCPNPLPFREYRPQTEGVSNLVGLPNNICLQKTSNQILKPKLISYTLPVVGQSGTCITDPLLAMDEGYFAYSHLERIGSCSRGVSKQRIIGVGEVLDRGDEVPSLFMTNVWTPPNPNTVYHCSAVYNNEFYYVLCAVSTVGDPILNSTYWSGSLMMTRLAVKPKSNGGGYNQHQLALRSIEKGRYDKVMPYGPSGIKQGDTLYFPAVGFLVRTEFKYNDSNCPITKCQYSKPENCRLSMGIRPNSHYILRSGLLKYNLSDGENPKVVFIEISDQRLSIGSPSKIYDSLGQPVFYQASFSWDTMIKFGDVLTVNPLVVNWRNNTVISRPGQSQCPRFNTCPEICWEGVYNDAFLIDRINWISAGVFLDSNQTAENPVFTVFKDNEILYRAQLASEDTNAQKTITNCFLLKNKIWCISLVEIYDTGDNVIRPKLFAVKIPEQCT

[2] = target: T1, NiV-G-Fc, a fusion construct between …; assay: SPR; BIAcore 3000; […]; 1:1 Langmuir model; conditions: both partners purified
EphB4-Fc = target: T2, EphB4-Fc (UniProt P54760 16-539); assay: SPR; unpublished data: BIAcore control, EphB4-Fc binding to ephrinB2-Fc; who was immobilised is not stated; conditions: both partners purified
T2 sequence (looked up): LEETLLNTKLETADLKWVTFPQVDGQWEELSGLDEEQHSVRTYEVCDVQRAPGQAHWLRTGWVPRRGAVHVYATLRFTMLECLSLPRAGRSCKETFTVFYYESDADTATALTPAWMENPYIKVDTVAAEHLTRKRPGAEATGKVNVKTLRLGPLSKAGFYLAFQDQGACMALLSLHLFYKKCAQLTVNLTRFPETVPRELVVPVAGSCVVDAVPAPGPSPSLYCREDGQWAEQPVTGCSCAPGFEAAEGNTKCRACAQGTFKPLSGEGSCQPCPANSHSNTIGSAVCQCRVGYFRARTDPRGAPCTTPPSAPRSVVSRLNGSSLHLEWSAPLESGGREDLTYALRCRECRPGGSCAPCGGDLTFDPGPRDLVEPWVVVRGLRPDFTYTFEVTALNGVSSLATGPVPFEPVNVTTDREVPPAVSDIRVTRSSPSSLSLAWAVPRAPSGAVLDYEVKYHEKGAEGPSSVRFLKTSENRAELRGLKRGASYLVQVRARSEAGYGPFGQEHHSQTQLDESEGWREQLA

Binder	koff [2] [s⁻¹]	other results
B1		Kd [1]: 0.58 nM
B2	0.000106	
B3		Kd (EphB4-Fc): 0.37 nM
B4	0.00194	
